Tested on: MS2 coat protein
Assay: apparent KD of MS2 coat protein; designed switch direction (-1 OFF switch, 1 ON switch): -1; higher = weaker reporter binding
Procedure, shortened: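 Designed RNA switches were transcribed on Illumina chips by stalled E. coli RNA polymerase and titrated with SNAP-549-labelled MS2 coat protein from 0.7 or 1.5 nM, doubling to 3 µM. Step length ran from 0.8–1.5 h at the lowest concentration to 10–20 min at the highest. The apparent KD is the median over clusters for each design, from curve-fitted normalised cluster fluorescence.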

[1] = Eterna round: R95, input ligand: FMN 200 uM
[2] = Eterna round: R95, input ligand: microRNA oligo, concentration not stated
[3] = Eterna round: R95, input ligand: none
[4] = input ligand: microRNA oligo, concentration not stated

Sequence	apparent KD of MS2 coat protein [1]	apparent KD of MS2 coat protein [2]	apparent KD of MS2 coat protein [3]	apparent KD of MS2 coat protein (input ligand: FMN 200 uM)	apparent KD of MS2 coat protein (input ligand: none)	apparent KD of MS2 coat protein [4]
AAAAUGUAAGGAUAUAGCCGGAACAAAGGGUCAAUAACCGGCUAGAAGGUACAUGAGGAUCACCCAUGUAAGAA [Excls4-V] (puzzle: Exclusion 4)	0.0194 µM	0.0133 µM	0.0158 µM	–	–	–
GUCAGACGAGGAUAUGAUGUCAAAGACAUGAGGAUCACCCAUGUGAUCAAUUAAUUAAGAUCAGAAGGCGUCUGAC [E5/2-A3] (Eterna round: R97, puzzle: Exclusion 5)	–	–	–	0.172 µM	0.222 µM	–
CUCCUCAUGACGCCUAAACACAUGAGGAUCACCCAUGUACAGGCUUUUUGUCGUCUUAUAAUAAAACCGAGGAUACG [Orlaorusti] (Eterna round: R96, puzzle: Sensor v3, turn-off variant 1)	–	–	–	0.0178 µM	0.0232 µM	0.0522 µM
CCCACAGGCUUUUUGCUCGACAUGAGGAUCACCCAUGUUGAAUGGGUUGUGUGUGUGUGAUACAUAUAUAUGGUCCU [-25.5, -50.5 kcal, A 21%] (Eterna round: R97, puzzle: Sensor, turn-off variant 1)	–	–	–	0.142 µM	0.158 µM	–
UAUUCGCAAGCGAGAUCCCACAUGAGGAUCACCCAUGUGCUCGUCUUAUAAGGUACUGUGACGAGAGUCACGGUACC [Mat - Sensor, turn-off var - Eli Mod - D82] (Eterna round: R97, puzzle: Sensor, turn-off variant 1)	–	–	–	0.0168 µM	0.0147 µM	–
CCGUCAUCAGGAUAUCCACAUCUCUACAUGAGGAUCACCCAUGUAAGCUUGGGUAAUAGCGGAGAAGGGAUAGACU [Eternabot (Original) Solution 20] (Eterna round: R97, puzzle: Exclusion 5)	–	–	–	0.0782 µM	0.0575 µM	–
AAAGAACUAGGAUAUCGCGCUACAGACAUGAGGAUCACCCAUGUAAUCGCAUGUCAAGUUUGAGAAGGAGUGAAGA [Usissodi] (puzzle: Exclusion 5)	0.0215 µM	0.0119 µM	0.0099 µM	–	–	–
GUAUGUUAUGAGGAUAUCGGUGAACAUACACAUCGAGAAGGCAUGACAUGAGGAUCACCCAUGUCAAGGAUGAC [Exclusion 6 - B - 18:d] (puzzle: Exclusion 6)	–	0.0249 µM	–	–	–	–
GGGCCCGGUGUGAGGAUAUGCCCGGGUAAACCCGGGUAGAAGGCACAUGAGGAUCACCCAUGUAAGCCGGGCCC [-43, -40.9 kcal, A 23%, 5cbis-0] (Eterna round: R97, puzzle: Brourd's mod of Exclusion 4)	–	–	–	0.0128 µM	0.0177 µM	–
CUCUCGCGAGGAUAUGAUUUAAGUAACAUGAGGAUCACCCAUGUUUUUCCGUUGUUAUGUUCAGAAGGCGCGUGAU [JR_E5_Sub022] (puzzle: Exclusion 5)	–	0.0388 µM	–	–	–	–
UCGCUGCGAGGAUAUACGUUCGCGCGCUUUCGUUUGCGCGUACAUGAGGAUCACCCAUGUAGAAGGCGCGCUGC [Apr-15 SS2-7] (puzzle: Exclusion 2)	–	0.0137 µM	–	–	–	–
ACAAUGUUAGGAUAUCUGACAACUAGCCUCGGCUAGUCGAAAGAGAAGGAACAUGAGGAUCACCCAUGUAGAUC [EX4 #71] (Eterna round: R97, puzzle: Exclusion 4)	–	–	–	0.523 µM	0.146 µM	–
CUAGCGGGUGUAGGAUAUCGGACUGUUUCAGUCUGAGAAGGACAUGAGGAUCACCCAUGUAUUGCUGCGUGAGUAGCACGCUAG [JL ENG1 3.98] (Eterna round: R96, puzzle: Exclusion NG 1)	–	–	–	0.0468 µM	0.0341 µM	0.0234 µM
CAUGAUCUUCGGAUCAUGUACAUGAGGAUCACCCAUGUGACGAGUUACAUGAAAAACAAGCUUUUUGCUCGUCUUAU [Sensor v3 - Turn-off variant 1 - 9] (puzzle: Sensor v3, turn-off variant 1)	0.0421 µM	0.121 µM	0.0498 µM	–	–	–
CAAAAGGUAGGAUAUACGAAAAAAAAGGGUAGAAAAAAAACACAUGAGGAUCACCCAUGUAGAAGGACCAAAAA [salish99_ex2_r3_055] (puzzle: Exclusion 2)	0.0676 µM	0.022 µM	0.0245 µM	–	–	–
CGUCAGUGAGGAUAUGGUAUCGUUUACAUGAGGAUCACCCAUGUUUCAUGGGACUAGAGACUAGAAGGUACUGACG [EX5 #43] (Eterna round: R97, puzzle: Exclusion 5)	–	–	–	0.408 µM	0.579 µM	–
AAGAAACAUGAGGAUCACCCAUGUGAGGAUAUGAAAAAGAAAAGAAAAGAAAGAAUAAUCAGAAGGCACAAAGG [Mat - Mod of Hog D11] (puzzle: Exclusion 1)	0.0507 µM	0.0343 µM	0.0401 µM	–	–	–
GCACAGGCAGGAUAUACAUGAGGAUCACCCAUGUGAUCCCUUAAGUACAAAAGUACAAGUAGAAGGGCCUGUGC [Omei Ex3 Model Bachelor's Dilema v43] (Eterna round: R97, puzzle: Exclusion 3)	–	–	–	0.0212 µM	0.916 µM	–

Sequence	apparent KD of MS2 coat protein [1]	apparent KD of MS2 coat protein [2]	apparent KD of MS2 coat protein [3]	apparent KD of MS2 coat protein (input ligand: FMN 200 uM)	apparent KD of MS2 coat protein (input ligand: none)	apparent KD of MS2 coat protein [4]
CUUAAGGCAGGAUAUGCUGUUUGUGACAUGAGGAUCACCCAUGUGAUGCAGUUUGGGUGUGCAGAAGGGCCUGAGU [JR_E5_Sub032] (puzzle: Exclusion 5)	0.0964 µM	0.0715 µM	0.131 µM	–	–	–
AAUUCACAUGAGGAUCACCCAUGUGAGGAUAUGGUUUCGCUGGCCGUAGCCAGUGGAACCAGAAGGCGCAUGAU [Mat - Exclusion 1 - JL Mod - D11] (Eterna round: R97, puzzle: Exclusion 1)	–	–	–	0.0307 µM	0.0289 µM	–
UUUAAUUUUUUUUUUUUACAAGCUUUUUGCUCGUCUUAUACAUGAGGAUCACCCAUGUGGGUAGGAGAUAAAUUAUC [JMF 16] (puzzle: Sensor v3, turn-off variant 2)	0.0321 µM	0.0454 µM	0.057 µM	–	–	–
GCUUGGCGAGGAUAUACAUGAGGAUCACCCAUGUGAGAGAAAGAAGUGAGGAAGAAAAGUAGAAGGCGCUGAGG [Mat - Exclusion 3 - Mod of Salish D60] (puzzle: Exclusion 3)	0.165 µM	0.0505 µM	0.0754 µM	–	–	–
UCGCAGUUAGGAUAUACAUGAGGAUCACCCAUGUGGCUCCGGACCGGCAACGAAUCACGUAGAAGGGACUGCAG [Eternabot (Original) Solution 24] (Eterna round: R97, puzzle: Exclusion 3)	–	–	–	0.0204 µM	0.0168 µM	–
GUCAGCUCGUCAGGAUAUGCACAUGAGGAUCACCCAUGUAAGAUCAAGCUGCUUCGGCAGCAAGUGCAGAAGGGACGAGCUGAC [ENG2/9-B1] (Eterna round: R96, puzzle: Exclusion NG 2)	–	–	–	0.161 µM	0.14 µM	0.229 µM
GAUUAUGCGAGCUUUAGGGACAUGAGGAUCACCCAUGUUCGUCUUAUUGAUCUAGAUGCACUGACAUACCUAAAUCU [JMF 77] (puzzle: Sensor v3, turn-off variant 1)	0.0151 µM	0.0187 µM	0.0172 µM	–	–	–
CGCAUGUCAGGAUAUCGUGCAUACAACGAAAGUUCUAUGUGCGAGAAGGGACAUGAGGAUCACCCAUGUUAGCG [Omei Ex4 A9] (Eterna round: R97, puzzle: Exclusion 4)	–	–	–	0.741 µM	0.604 µM	–
CAUACACAUGAGGAUCACCCAUGUGAGGAUAUGCGUACGUUGUCCGUAGGCGACGUGCGCAGAAGGCGCUUGGU [JL-ex1-3.18 Eli mod] (puzzle: Exclusion 1)	–	0.049 µM	–	–	–	–
UUAUUCAGAGGAUAUGCGCAUAGAUAAGACUUUUUUUUUUAACAUGAGGAUCACCCAUGUAGAAGGCUGUAAUU [Ex2 #55] (Eterna round: R97, puzzle: Exclusion 2)	–	–	–	0.0181 µM	0.021 µM	–
UUGUAGUGAGGAUAUAUAUAGAGGUUUUAUUAAUUUUUAAAACUUGAGGAUCACCCAAGUAGAAGGCGCAAAGU [JR_Ex2_Sub071] (Eterna round: R97, puzzle: Exclusion 2)	–	–	–	0.0415 µM	0.0399 µM	–
GCAUCCAAAGUGAGGAUAUACCUCUGGAUACAGAGGUAGAAGGCACAUGAGGAUCACCCAUGUUACUAGGAUGC [Fiskers BMX 4 - 35] (puzzle: Brourd's mod of Exclusion 4)	–	0.0132 µM	–	–	–	–
CCUGCGGACAAAGGAUAUUGCGGUGGCCGGCUCAGUAAAUCUAGCCAACAUGAGGAUCACCCAUGUAAGAAGGUUGCCGUUGGU [Qudice] (Eterna round: R96, puzzle: Exclusion NG 2)	–	–	–	–	–	0.017 µM
GGUCAAGAACAGAUCCGCGCUGCCCUCGACCGCUCAUUUACAUGAGGAUCACCCAUGUUUUUUGCUUGUCUUGUUAC [Vezageis] (puzzle: Sensor v3, turn-off variant 2)	0.0172 µM	0.057 µM	0.0171 µM	–	–	–
UUAGUGUUAGGAUAUAAUCAUAUAAGCUGUAAGGUGUAUGAUUAGAAGGGACAUGAGGAUCACCCAUGUCGUGA [Eternabot (L1) Solution 94] (Eterna round: R97, puzzle: Exclusion 4)	–	–	–	0.0231 µM	0.0201 µM	–
CGUCCUCUAGUUAGGAUAUUGUCUCGGAUACGAAACAAGAAGGGACAUGAGGAUCACCCAUGUAAUGAGGACGA [Malc #30 mod 16] (puzzle: Brourd's mod of Exclusion 4)	–	0.0273 µM	–	–	–	–
GUCAGCUCGUGAGGAUAUACAUGAGGAUCACCCAUGUGAUCAAUAGCAGCUUCGGCUGCAUUAAUGUAGAAGGUACGAGCUGAC [ENG2/5-C1] (Eterna round: R96, puzzle: Exclusion NG 2)	–	–	–	0.0652 µM	0.7 µM	0.111 µM

Source: the supplement of paper PMC9170038
